T1: HTLV-1 Rex peptide (HTLV-1, UniProt P0C206)
T1 chain: MPKTRRRPRRSQRKRP

T2: bacteriophage λN peptide (bacteriophage lambda, UniProt P03045)
T2 chain: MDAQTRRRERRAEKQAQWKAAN

B1: HIV-1 Rev aptamer (structured_RNA)
RNA: GGCUGGACUCGUACUUCGGUACUGGAGAAACAGCC
B2: HTLV-1 Rex aptamer (structured_RNA)
RNA: UAGGCGACGGUACGCAAGUACUCUUGCGCCGGCCUA

Tests used:
Settings in all cases: label: none (ethidium bromide stain)
HTLV-1 Rex peptide [1] = target: T1, HTLV-1 Rex peptide; assay: EMSA; 50 mM Tris-HCl pH 8.0, 50 mM KCl, 30 °C 15 min; RNA refolded from 95 °C; 15% PAGE in Tris-borate-EDTA, ethidium bromide stain
bacteriophage λN peptide = target: T2, bacteriophage λN peptide; assay: as above
HTLV-1 Rex peptide [2] = target: T1, HTLV-1 Rex peptide; assay: EMSA; peptide in excess over RNA; ++; 50 mM Tris-HCl pH 8.0, 50 mM KCl, 30 °C 15 min; RNA refolded from 95 °C; 15% PAGE in Tris-borate-EDTA, ethidium bromide stain

Row | Binder | binding result (HTLV-1 Rex peptide [1]) | binding result (bacteriophage λN peptide) | apparent K (half saturation) (HTLV-1 Rex peptide [2]) [nM]
1 | B1 | no binding | no binding | –
2 | B2 | – | no binding | ~300

— article PMC4053799, “RNA Detection in Live Bacterial Cells Using Fluorescent Protein Complementation Triggered by Interaction of Two RNA Aptamers with Two RNA-Binding Peptides”
